The target of this data set is HTNV-L (full-length Hantaan virus polymerase, L protein) (Hantaan virus (strain 76-118/Korean …, UniProt P23456 1-2151)). As to the kind of experiment: cryo-EM; 30 mM HEPES pH 8, 250 mM NaCl, 5 mM TCEP ([…]; temperature not stated. The note with it: protein: recombinant; tags: N-terminal His6.

The text below walks through data of publication PMC10937945.

Sequence of HTNV-L (full-length Hantaan virus polymerase, L protein) (Hantaan virus (P23456 whole entry): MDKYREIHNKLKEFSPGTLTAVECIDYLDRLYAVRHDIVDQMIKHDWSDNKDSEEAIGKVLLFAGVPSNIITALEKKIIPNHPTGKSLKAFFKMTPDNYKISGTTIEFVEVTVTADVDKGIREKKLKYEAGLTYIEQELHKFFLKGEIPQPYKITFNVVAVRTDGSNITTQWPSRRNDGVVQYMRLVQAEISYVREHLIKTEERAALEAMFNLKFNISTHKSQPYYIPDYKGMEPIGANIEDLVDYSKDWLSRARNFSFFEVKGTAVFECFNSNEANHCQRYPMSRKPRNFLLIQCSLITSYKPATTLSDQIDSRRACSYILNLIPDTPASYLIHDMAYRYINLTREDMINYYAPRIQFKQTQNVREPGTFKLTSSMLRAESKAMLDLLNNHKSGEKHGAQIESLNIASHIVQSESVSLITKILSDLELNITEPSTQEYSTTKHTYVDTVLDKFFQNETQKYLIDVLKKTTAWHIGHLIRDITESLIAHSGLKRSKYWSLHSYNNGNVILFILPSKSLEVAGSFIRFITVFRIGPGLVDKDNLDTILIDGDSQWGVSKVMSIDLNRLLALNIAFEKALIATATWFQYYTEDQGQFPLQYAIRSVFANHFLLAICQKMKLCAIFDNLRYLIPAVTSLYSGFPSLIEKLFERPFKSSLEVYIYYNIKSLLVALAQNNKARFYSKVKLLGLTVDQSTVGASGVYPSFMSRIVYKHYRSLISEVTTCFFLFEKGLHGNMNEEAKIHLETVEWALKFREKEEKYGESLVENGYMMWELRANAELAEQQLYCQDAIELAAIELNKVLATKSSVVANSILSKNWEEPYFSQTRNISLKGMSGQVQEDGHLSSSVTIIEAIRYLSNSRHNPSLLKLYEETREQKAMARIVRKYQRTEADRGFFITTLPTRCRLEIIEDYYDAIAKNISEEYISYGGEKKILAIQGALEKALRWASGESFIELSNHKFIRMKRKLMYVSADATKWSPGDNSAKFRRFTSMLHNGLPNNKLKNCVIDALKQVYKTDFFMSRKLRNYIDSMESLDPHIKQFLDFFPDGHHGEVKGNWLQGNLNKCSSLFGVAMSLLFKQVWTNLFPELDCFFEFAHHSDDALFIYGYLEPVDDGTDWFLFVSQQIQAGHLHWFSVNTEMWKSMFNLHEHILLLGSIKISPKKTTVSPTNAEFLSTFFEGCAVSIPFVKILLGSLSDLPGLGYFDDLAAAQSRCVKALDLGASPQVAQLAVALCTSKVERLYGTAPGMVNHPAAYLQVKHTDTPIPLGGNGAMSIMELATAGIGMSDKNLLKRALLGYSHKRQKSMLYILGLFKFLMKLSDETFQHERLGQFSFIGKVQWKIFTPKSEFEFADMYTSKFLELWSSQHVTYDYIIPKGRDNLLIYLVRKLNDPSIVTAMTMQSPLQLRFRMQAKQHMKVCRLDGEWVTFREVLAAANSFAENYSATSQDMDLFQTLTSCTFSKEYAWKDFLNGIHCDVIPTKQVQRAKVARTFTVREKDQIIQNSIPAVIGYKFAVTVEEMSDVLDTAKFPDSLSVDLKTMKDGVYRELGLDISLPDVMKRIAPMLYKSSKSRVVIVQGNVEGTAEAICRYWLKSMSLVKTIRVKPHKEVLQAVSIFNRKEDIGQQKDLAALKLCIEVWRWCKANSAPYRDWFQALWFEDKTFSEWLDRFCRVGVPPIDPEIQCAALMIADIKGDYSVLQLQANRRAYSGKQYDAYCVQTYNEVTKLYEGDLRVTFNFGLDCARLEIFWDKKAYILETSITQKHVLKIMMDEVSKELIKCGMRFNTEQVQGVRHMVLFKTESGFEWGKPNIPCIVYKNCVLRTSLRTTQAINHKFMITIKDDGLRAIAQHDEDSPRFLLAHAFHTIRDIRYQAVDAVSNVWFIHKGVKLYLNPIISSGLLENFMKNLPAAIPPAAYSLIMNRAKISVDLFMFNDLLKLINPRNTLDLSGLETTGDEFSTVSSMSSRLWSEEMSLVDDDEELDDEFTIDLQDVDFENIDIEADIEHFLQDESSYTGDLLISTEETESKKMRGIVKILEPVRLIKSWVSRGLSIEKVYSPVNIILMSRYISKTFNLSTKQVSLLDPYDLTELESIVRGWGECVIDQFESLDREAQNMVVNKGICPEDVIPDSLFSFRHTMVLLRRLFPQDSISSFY

B1: 5'vRNA (ssRNA)
RNA: UAGUAGUAGACACCGCAAGAUGUUA
With B1, the binding result was “binds”.
